Test results taken from US20240382610A1 (TALLAC THERAPEUTICS, published 2024).

T1: Human nectin-4 ECD-6His (TNT-175) (human, UniProt Q96NY8 32-349)
T1 construct: the entry holds the extracellular domain with the C-terminal 6His tag
T1 sequence: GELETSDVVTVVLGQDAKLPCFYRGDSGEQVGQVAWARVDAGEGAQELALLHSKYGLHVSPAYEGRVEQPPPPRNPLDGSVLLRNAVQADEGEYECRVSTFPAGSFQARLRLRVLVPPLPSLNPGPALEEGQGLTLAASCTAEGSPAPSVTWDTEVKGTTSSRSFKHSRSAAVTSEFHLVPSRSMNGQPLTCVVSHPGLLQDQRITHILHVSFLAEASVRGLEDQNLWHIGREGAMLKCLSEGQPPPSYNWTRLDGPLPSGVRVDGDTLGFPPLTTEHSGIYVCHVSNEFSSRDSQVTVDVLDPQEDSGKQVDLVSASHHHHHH

T2: human nectin-4 on cells (human, UniProt Q96NY8 32-510)
T2 construct: whole, on cells; also called PVRL4
T2 sequence (looked up): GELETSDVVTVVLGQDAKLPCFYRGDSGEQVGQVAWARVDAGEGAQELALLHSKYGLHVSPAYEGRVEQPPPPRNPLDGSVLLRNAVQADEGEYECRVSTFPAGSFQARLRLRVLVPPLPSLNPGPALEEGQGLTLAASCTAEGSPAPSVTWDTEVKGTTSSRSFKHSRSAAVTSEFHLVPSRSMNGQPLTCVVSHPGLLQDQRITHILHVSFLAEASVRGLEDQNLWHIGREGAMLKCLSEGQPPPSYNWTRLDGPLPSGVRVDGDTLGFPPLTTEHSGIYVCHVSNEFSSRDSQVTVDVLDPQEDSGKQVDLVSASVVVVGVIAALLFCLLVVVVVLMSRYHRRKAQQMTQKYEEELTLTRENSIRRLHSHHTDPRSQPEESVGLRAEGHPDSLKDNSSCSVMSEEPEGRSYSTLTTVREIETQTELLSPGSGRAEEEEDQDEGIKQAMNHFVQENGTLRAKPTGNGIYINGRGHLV


Tests used:
[1] = biological target: T1, Human nectin-4 ECD-6His (TNT-175); assay: SPR ProteOn, mAb on protein A
Description: Initial testing of binding of nectin-4 antibodies to nectin-4. […] Biotinylated protein A (15 μg/mL) was immobilized to the surface of an NLC chip. 30 nM of purified mAb supernatant was diluted in PBS-T and captured over the protein A surface. Serial dilutions of human nectin-4 were injected over the mAb-coated chips, and binding kinetics were determined. Chips were regenerated using 4:1 v/v of IgG elution butter/4M NaCl.

human nectin-4 on cells = biological target: T2, human nectin-4 on cells; assay: flow cytometry MFI, MNK74 (nectin-4 positive) over AGS (negative)
[2] = biological target: T1, Human nectin-4 ECD-6His (TNT-175); assay: competition ELISA; nectin-4 ECD premixed with TNT201, captured by the coat antibody; % of signal without premix antibody
Method in brief: (§1)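 Goat anti-mouse IgG was coated at 1 mg/mL in PBS overnight at 4° C. Premixes were applied for an hour, then rabbit anti-6×His HRP (1:4,000) for an hour at room temperature, then ABTS for 20 minutes. O.D. values, background-corrected, were reported relative to nectin-4 alone at its lowest dilution.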

[3] = biological target: T1, Human nectin-4 ECD-6His (TNT-175); assay: competition ELISA; nectin-4 ECD premixed with TNT202, captured by the coat antibody; % of signal without premix antibody
Method in brief: as §1

[4] = biological target: T1, Human nectin-4 ECD-6His (TNT-175); assay: competition ELISA; nectin-4 ECD premixed with TNT203, captured by the coat antibody; % of signal without premix antibody
Method in brief: as §1

[5] = biological target: T1, Human nectin-4 ECD-6His (TNT-175); assay: competition ELISA; nectin-4 ECD premixed with TNT204, captured by the coat antibody; % of signal without premix antibody
Method in brief: as §1

[6] = biological target: T1, Human nectin-4 ECD-6His (TNT-175); assay: competition ELISA; nectin-4 ECD premixed with TNT205, captured by the coat antibody; % of signal without premix antibody
Method in brief: as §1

[7] = biological target: T1, Human nectin-4 ECD-6His (TNT-175); assay: competition ELISA; nectin-4 ECD premixed with TNT206, captured by the coat antibody; % of signal without premix antibody
Method in brief: as §1

[8] = biological target: T1, Human nectin-4 ECD-6His (TNT-175); assay: competition ELISA; nectin-4 ECD premixed with TNT207, captured by the coat antibody; % of signal without premix antibody
Method in brief: as §1

[9] = biological target: T1, Human nectin-4 ECD-6His (TNT-175); assay: competition ELISA; nectin-4 ECD premixed with TNT208, captured by the coat antibody; % of signal without premix antibody
Method in brief: as §1

[10] = biological target: T1, Human nectin-4 ECD-6His (TNT-175); assay: competition ELISA; nectin-4 ECD premixed with TNT209, captured by the coat antibody; % of signal without premix antibody
Method in brief: as §1

[11] = biological target: T1, Human nectin-4 ECD-6His (TNT-175); assay: competition ELISA; nectin-4 ECD premixed with TNT210, captured by the coat antibody; % of signal without premix antibody
Method in brief: as §1

[12] = biological target: T1, Human nectin-4 ECD-6His (TNT-175); assay: competition ELISA; nectin-4 ECD premixed with TNT211, captured by the coat antibody; % of signal without premix antibody
Method in brief: as §1

[13] = biological target: T1, Human nectin-4 ECD-6His (TNT-175); assay: competition ELISA; nectin-4 ECD premixed with TNT212, captured by the coat antibody; % of signal without premix antibody
Method in brief: as §1

Row | Kd [1] [nM] | koff [1] [s⁻¹] | kon [1] [M⁻¹ s⁻¹] | Fold-change of binding to MNK74 compared to control AGS (human nectin-4 on cells) [fold] | % of Positive [2] [%] | % of Positive [3] [%] | % of Positive [4] [%] | % of Positive [5] [%] | % of Positive [6] [%] | % of Positive [7] [%] | % of Positive [8] [%] | % of Positive [9] [%] | % of Positive [10] [%] | % of Positive [11] [%] | % of Positive [12] [%] | % of Positive [13] [%] | Binder
1 | 20.2 | 0.00138 | 68400 | 5.9 | 0.9 | 2.5 | 29.8 | 2.2 | 56.9 | 5.4 | 1 | 2.1 | 26 | 0.8 | 19.5 | 1.9 | TNT-198 (antibody, mouse IgG2a, kappa) heavy: EVQLVQSGAEVKKPGSSVKVSCKASGGTFSSYAISWVRQAPGQGLEWMGWINPNSGGTNYAQKFQGRVTMTRDTSTSTAYMELSSLRSEDTAVYYCATGYYGDLYYFDYWGQGTLVTVSSAKTTAPSVYPLAPVCGDTTGSSVTLGCLVKGYFPEPVTLTWNSGSLSSGVHTFPAVLQSDLYTLSSSVTVTSSTWPSQSITCNVAHPASSTKVDKKIEPRGPTIKPCPPCKCPAPNLLGGPSVFIFPPKIKDVLMISLSPIVTCVVVDVSEDDPDVQISWFVNNVEVHTAQTQTHREDYNSTLRVVSALPIQHQDWMSGKEFKCKVNNKDLPAPIERTISKPKGSVRAPQVYVLPPPEEEMTKKQVTLTCMVTDFMPEDIYVEWTNNGKTELNYKNTEPVLDSDGSYFMYSKLRVEKKNWVERNSYSCSVVHEGLHNHHTTKSFSRTPGRPQGFGPP light: DIVMTQSPSSLSASVGDRVTITCRASQGISNYLAWYQQKPGKVPKLLIYAASTLQSGVPSRFSGSGSGTEFTLAISSLQPEDLATYYCQQLNSHPITFGQGTRLEIKRADAAPTVSIFPPSSEQLTSGGASVVCFLNNFYPKDINVKWKIDGSERQNGVLNSWTDQDSKDSTYSMSSTLTLTKDEYERHNSYTCEATHKTSTSPIVKSFNRNEC
2 | 5.09 | 0.00423 | 832000 | 5 | 1 | 4.3 | 29.3 | 3.9 | 44.4 | 10.5 | 2.4 | 4.3 | 26.7 | 2.7 | 27 | 3.1 | TNT-189 (antibody, mouse IgG2a, kappa) heavy: EVQLVQSGAEVKKPGSSVKVSCKASGGTFSSYAISWVRQAPGQGLEWMGGIIPIFGTANYAQKFQGRVTITADESTSTAYMELSSLRSEDTAVYYCARGYSSSWYEPYYFDYWGQGTLVTVSSAKTTAPSVYPLAPVCGDTTGSSVTLGCLVKGYFPEPVTLTWNSGSLSSGVHTFPAVLQSDLYTLSSSVTVTSSTWPSQSITCNVAHPASSTKVDKKIEPRGPTIKPCPPCKCPAPNLLGGPSVFIFPPKIKDVLMISLSPIVTCVVVDVSEDDPDVQISWFVNNVEVHTAQTQTHREDYNSTLRVVSALPIQHQDWMSGKEFKCKVNNKDLPAPIERTISKPKGSVRAPQVYVLPPPEEEMTKKQVTLTCMVTDFMPEDIYVEWTNNGKTELNYKNTEPVLDSDGSYFMYSKLRVEKKNWVERNSYSCSVVHEGLHNHHTTKSFSRTPGRPQGFGPP light: DIQLTQSPSSLSASVGDRVTITCRASQGISNYLAWYQQKPGKAPKLLIYAASTLQSGVPSRFSGSGSGTDFTLTISSLQPEDFATYYCQQSYSTPYTFGQGTKLEIKRADAAPTVSIFPPSSEQLTSGGASVVCFLNNFYPKDINVKWKIDGSERQNGVLNSWTDQDSKDSTYSMSSTLTLTKDEYERHNSYTCEATHKTSTSPIVKSFNRNEC
3 | 7.03 | 0.00153 | 217000 | 4.3 | 2.7 | 12.8 | 40 | 9.2 | 52.5 | 20 | 7.5 | 12.7 | 43.7 | 8 | 35.4 | 10.1 | TNT-188 (antibody, mouse IgG2a, kappa) heavy: EVQLVQSGAEVKKPGSSVKVSCKASGYTFTGYYMHWVRQAPGQGLEWMGWINPNSGGTNYAQKFQGRVTMTRDTSISTAYMELRSLRSDDTAVYYCARGSALHFFGVFDYWGQGTLVTVSSAKTTAPSVYPLAPVCGDTTGSSVTLGCLVKGYFPEPVTLTWNSGSLSSGVHTFPAVLQSDLYTLSSSVTVTSSTWPSQSITCNVAHPASSTKVDKKIEPRGPTIKPCPPCKCPAPNLLGGPSVFIFPPKIKDVLMISLSPIVTCVVVDVSEDDPDVQISWFVNNVEVHTAQTQTHREDYNSTLRVVSALPIQHQDWMSGKEFKCKVNNKDLPAPIERTISKPKGSVRAPQVYVLPPPEEEMTKKQVTLTCMVTDFMPEDIYVEWTNNGKTELNYKNTEPVLDSDGSYFMYSKLRVEKKNWVERNSYSCSVVHEGLHNHHTTKSFSRTPGRPQGFGPP light: not shown
